From PMC9734137 (Cell Discovery, 2022)

Key:
WT SARS2 RBD [1] = molecular target: T1, WT SARS2 RBD (SARS-CoV-2 Wuhan (MN908947), UniProt P0DTC2); assay: SPR; details: both partners purified
T1 construct: not shown: Fc (human IgG1), C-terminal, cleaved

WT SARS2 RBD [2] = molecular target: T1, WT SARS2 RBD; assay: cell-based or functional assay

Row | Binder | Kd (WT SARS2 RBD [1]) [nM] | IC50, neutralisation of WT SARS2 pseudovirus (blocks RBD-ACE2) (WT SARS2 RBD [2]) [nM] | binding result (WT SARS2 RBD [1])
1 | aSA3 (VHH) VHH: QVQLVESGGGLVQPGGSLRLSCAASGFTSDHYALAWFRQAPGKEREGVSCIDSDGNPFYADSVKGRFTGSRDNAKNTVYLQMNSLKLEDTAVYYCAAGLWYGRSLNSFDYDYWGQGTQVTVSS | 0.0519 | 0.97 | –
2 | aRBD-2 (VHH) VHH: QVQLVESGGGLVQAGGSLRLSCAASGRTYTMGWFRQAPGKEREFVAAMRWSDTDYADSLKGRFTISRDNANNAMYLQMNSLGPEDTAVYYCAAGEAWLARSTHHYDYWGQGTQVTVSS | – | – | binds
